In publication PMC6888640, “Key Factors for a One-Pot Enzyme Cascade Synthesis of High Molecular Weight Hyaluronic Acid” (International Journal of Molecular Sciences, 2019):

Columns and labels:
AtGlcAK = molecular target: T1, AtGlcAK (Arabidopsis thaliana, UniProt Q93ZC9); conditions: substrate inhibition; 5 mM GlcA, 5 mM MgCl2, 100 mM HEPES pH 7.5, 25 °C
T1 construct: gene GLCAK1
T1 sequence (Q93ZC9 1-362): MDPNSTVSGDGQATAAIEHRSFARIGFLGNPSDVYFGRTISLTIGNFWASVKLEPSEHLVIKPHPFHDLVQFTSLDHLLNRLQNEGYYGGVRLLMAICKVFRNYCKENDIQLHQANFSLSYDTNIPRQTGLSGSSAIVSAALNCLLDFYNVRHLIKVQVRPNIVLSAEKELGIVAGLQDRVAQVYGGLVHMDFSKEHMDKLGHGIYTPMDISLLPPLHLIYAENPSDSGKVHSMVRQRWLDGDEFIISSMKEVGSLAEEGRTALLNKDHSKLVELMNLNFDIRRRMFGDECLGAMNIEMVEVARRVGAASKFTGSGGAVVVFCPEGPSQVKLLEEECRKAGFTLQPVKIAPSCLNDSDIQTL
From the text: initial rates by multiplexed capillary electrophoresis; uncompetitive substrate-inhibition fit on AtGlcAK

purified protein = substrate: Nc1ncnc2c1ncn2[C@@H]1O[C@H](COP(=O)(O)OP(=O)(O)OP(=O)(O)O)[C@@H](O)[C@H]1O; experiment: purified protein; conditions: apparent, substrate-inhibition fit, 5 mM GlcA, 5 mM MgCl2, 100 mM HEPES pH 7.5, 25 °C
[1] = substrate: O=P(O)(O)O[C@H]1O[C@H](CO)[C@@H](O)[C@H](O)[C@H]1O; experiment: initial rates by multiplexed capillary electrophoresis; Michaelis-Menten fit; type: biochemical, Arabidopsis thaliana; conditions: 5 mM UTP, 15 mM MgCl2, 100 mM HEPES pH 8, 25 °C
From the text: (§1) initial rates by multiplexed capillary electrophoresis; Michaelis-Menten fit on AtUSP

[2] = substrate: O=c1ccn([C@@H]2O[C@H](COP(=O)(O)OP(=O)(O)OP(=O)(O)O)[C@@H](O)[C@H]2O)c(=O)[nH]1; experiment: as above; type: biochemical, Arabidopsis thaliana; conditions: 5 mM Glc-1-P, 15 mM MgCl2, 100 mM HEPES pH 8, 25 °C
From the text: as §1

With `Nc1ncnc2c1ncn2[C@@H]1O[C@H](COP(=O)(O)OP(=O)(O)OP(=O)(O)O)[C@@H](O)[C@H]1O` [ATP] as the molecule, how does the AtGlcAK (AtGlcAK) read?
Its AtGlcAK is 2.87 mM.

B1: AtGlcAK (Arabidopsis thaliana) (protein)
chain: T1 sequence (Q93ZC9 1-362)
With B1 as the molecule, how does the Km (purified protein) read?
The Km was 8560 µM.

B2: AtUSP (Arabidopsis thaliana) (protein)
chain: ASTVDSNFFSSVPALHSNLGLLSPDQIELAKILLENGQSHLFQQWPELGVDDKEKLAFFDQIARLNSSYPGGLAAYIKTAKELLADSKVGKNPYDGFSPSVPSGENLTFGTDNFIEMEKRGVVEARNAAFVLVAGGLGERLGYNGIKVALPRETTTGTCFLQHYIESILALQEASNKIDSDGSERDIPFIIMTSDDTHSRTLDLLELNSYFGMKPTQVHLLKQEKVACLDDNDARLALDPHNKYSIQTKPHGHGDVHSLLYSSGLLHKWLEAGLKWVLFFQDTNGLLFNAIPASLGVSATKQYHVNSLAVPRKAKEAIGGISKLTHVDGRSMVINVEYNQLDPLLRASGFPDGDVNCETGFSPFPGNINQLILELGPYKDELQKTGGAIKEFVNPKYKDSTKTAFKSSTRLECMMQDYPKTLPPTARVGFTVMDIWLAYAPVKNNPEDAAKVPKGNPYHSATSGEMAIYRANSLILQKAGVKVEEPVKQVLNGQEVEVWSRITWKPKWGMIFSDIKKKVSGNCEVSQRSTMAIKGRNVFIKDLSLDGALIVDSIDDAEVKLGGLIKNNGWTMESVDYKDTSVPEEIRIRGFRFNKVEQLEKKLTQPGKFSVED
notes: full-length synthetic codon-optimized gene, pET-16b(+), N-terminal His10 tag, E. coli BL21(DE3), IMAC
With B2 as the molecule, how does the Km [1] read?
The Km was 580 µM.

And the Km [2]?
The Km was 440 µM.
